Starred links: 1 amine or outer side, 2 acyl side, 3 side chain; linkers in the order of their positions; H or OH if unused. Non-standard residues stand in square brackets, D forms with d. Primed or numbered codes have the meaning given here. *: point of attachment. AC4Abu = α-carboxy-4-aminobutyric acid, O=C(C(CCN[*:1])C(=O)[*:3])[*:2]; dBip = N[C@H](Cc1ccc(-c2ccccc2)cc1)C(=O)O; Oic = O=C(O)[C@@H]1C[C@@H]2CCCC[C@@H]2N1; Phe(4-Cl) = N[C@@H](Cc1ccc(Cl)cc1)C(=O)O; dPhe(4-Cl) = N[C@H](Cc1ccc(Cl)cc1)C(=O)O; Phe(4-I) = N[C@@H](Cc1ccc(I)cc1)C(=O)O; γGlu = O=C(O)[C@H](CCC(=O)[*:2])N[*:1]; HOOC(CH2)8CO = O=C(O)CCCCCCCCC(=O)*; d(β3hF) = N[C@@H](CC(=O)O)Cc1ccccc1; NMeR = CN[C@@H](CCCNC(=N)N)C(=O)O; Tridecanoyl = CCCCCCCCCCCCC(=O)*; hArg = N=C(N)NCCCC[C@H](N)C(=O)O; Cha = N[C@@H](CC1CCCCC1)C(=O)O; NMeL = CN[C@@H](CC(C)C)C(=O)O; αMeP = C[C@@]1(C(=O)O)CCCN1; AC4Abu″ = not defined here; β3hP = O=C(O)C[C@@H]1CCCN1; Nle = CCCC[C@H](N)C(=O)O; Deg = CCC(N)(CC)C(=O)O; AEEA = NCCOCCOCC(=O)O; Aib = CC(C)(N)C(=O)O
T1: human APJ receptor (human, UniProt P35414 1-380)
T1 sequence (looked up): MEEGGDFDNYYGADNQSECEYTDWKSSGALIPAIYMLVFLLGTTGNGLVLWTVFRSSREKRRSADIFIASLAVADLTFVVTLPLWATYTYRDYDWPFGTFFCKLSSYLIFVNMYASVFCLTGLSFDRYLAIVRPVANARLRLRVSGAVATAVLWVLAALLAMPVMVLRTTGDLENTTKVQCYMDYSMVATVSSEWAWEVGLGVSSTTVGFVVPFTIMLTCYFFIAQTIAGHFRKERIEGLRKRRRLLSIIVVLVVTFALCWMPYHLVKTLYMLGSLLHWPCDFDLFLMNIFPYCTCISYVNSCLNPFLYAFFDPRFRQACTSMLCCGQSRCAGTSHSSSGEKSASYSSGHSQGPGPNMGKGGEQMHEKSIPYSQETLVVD

T2: rat APJ receptor (rat, UniProt Q9JHG3 1-377)
T2 sequence (looked up): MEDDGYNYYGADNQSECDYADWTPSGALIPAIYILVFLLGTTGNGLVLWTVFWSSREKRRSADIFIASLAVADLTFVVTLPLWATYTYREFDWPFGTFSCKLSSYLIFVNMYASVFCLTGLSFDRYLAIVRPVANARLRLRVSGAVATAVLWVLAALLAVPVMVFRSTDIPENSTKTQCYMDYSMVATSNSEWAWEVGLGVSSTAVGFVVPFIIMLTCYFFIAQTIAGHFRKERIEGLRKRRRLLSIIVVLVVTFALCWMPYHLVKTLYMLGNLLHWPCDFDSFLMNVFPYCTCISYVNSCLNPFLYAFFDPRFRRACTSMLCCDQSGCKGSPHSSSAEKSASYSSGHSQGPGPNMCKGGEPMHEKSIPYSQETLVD

T3: rat APJ receptor (rat, UniProt Q9JHG3 1-377)
T3 sequence (looked up): T2 sequence (looked up)

B1: Apelin polypeptide SEQ ID NO: 409 (peptide)
peptide: Tridecanoyl-[AC4Abu][AEEA][AEEA]QRP[NMeR][Cha]SHKG[Oic][Nle][Phe(4-Cl)]-OH
SMILES: CCCCCCCCCCCCC(=O)NCCC(C(=O)O)C(=O)NCCOCCOCC(=O)NCCOCCOCC(=O)N[C@@H](CCC(N)=O)C(=O)N[C@@H](CCCNC(=N)N)C(=O)N1CCC[C@H]1C(=O)N(C)[C@@H](CCCNC(=N)N)C(=O)N[C@@H](CC1CCCCC1)C(=O)N[C@@H](CO)C(=O)N[C@@H](Cc1c[nH]cn1)C(=O)N[C@@H](CCCCN)C(=O)NCC(=O)N1[C@H](C(=O)N[C@@H](CCCC)C(=O)N[C@@H](Cc2ccc(Cl)cc2)C(=O)O)C[C@@H]2CCCC[C@@H]21
B2: Apelin polypeptide SEQ ID NO: 381 (peptide)
peptide: Tridecanoyl-[γGlu][AEEA][AEEA]QRP[NMeR][Cha]SHKG[Oic][Nle]P[dPhe(4-Cl)]-OH
SMILES: CCCCCCCCCCCCC(=O)N[C@@H](CCC(=O)NCCOCCOCC(=O)NCCOCCOCC(=O)N[C@@H](CCC(N)=O)C(=O)N[C@@H](CCCNC(=N)N)C(=O)N1CCC[C@H]1C(=O)N(C)[C@@H](CCCNC(=N)N)C(=O)N[C@@H](CC1CCCCC1)C(=O)N[C@@H](CO)C(=O)N[C@@H](Cc1c[nH]cn1)C(=O)N[C@@H](CCCCN)C(=O)NCC(=O)N1[C@H](C(=O)N[C@@H](CCCC)C(=O)N2CCC[C@H]2C(=O)N[C@H](Cc2ccc(Cl)cc2)C(=O)O)C[C@@H]2CCCC[C@@H]21)C(=O)O
B3: Apelin polypeptide SEQ ID NO: 411 (peptide)
peptide: Tridecanoyl-[AC4Abu][AEEA][AEEA]QRP[NMeR][Cha]SHKG[Oic][Nle][Deg][Phe(4-Cl)]-OH
SMILES: CCCCCCCCCCCCC(=O)NCCC(C(=O)O)C(=O)NCCOCCOCC(=O)NCCOCCOCC(=O)N[C@@H](CCC(N)=O)C(=O)N[C@@H](CCCNC(=N)N)C(=O)N1CCC[C@H]1C(=O)N(C)[C@@H](CCCNC(=N)N)C(=O)N[C@@H](CC1CCCCC1)C(=O)N[C@@H](CO)C(=O)N[C@@H](Cc1c[nH]cn1)C(=O)N[C@@H](CCCCN)C(=O)NCC(=O)N1[C@H](C(=O)N[C@@H](CCCC)C(=O)NC(CC)(CC)C(=O)N[C@@H](Cc2ccc(Cl)cc2)C(=O)O)C[C@@H]2CCCC[C@@H]21
B4: Apelin polypeptide SEQ ID NO: 380 (peptide)
peptide: Tridecanoyl-[γGlu][AEEA][AEEA]QRP[NMeR][Cha]SHKG[Oic][Nle]P[d(β3hF)]-OH
SMILES: CCCCCCCCCCCCC(=O)N[C@@H](CCC(=O)NCCOCCOCC(=O)NCCOCCOCC(=O)N[C@@H](CCC(N)=O)C(=O)N[C@@H](CCCNC(=N)N)C(=O)N1CCC[C@H]1C(=O)N(C)[C@@H](CCCNC(=N)N)C(=O)N[C@@H](CC1CCCCC1)C(=O)N[C@@H](CO)C(=O)N[C@@H](Cc1c[nH]cn1)C(=O)N[C@@H](CCCCN)C(=O)NCC(=O)N1[C@H](C(=O)N[C@@H](CCCC)C(=O)N2CCC[C@H]2C(=O)N[C@@H](CC(=O)O)Cc2ccccc2)C[C@@H]2CCCC[C@@H]21)C(=O)O
B5: Apelin polypeptide SEQ ID NO: 390 (peptide)
peptide: Tridecanoyl-[γGlu][AEEA][AEEA]QRP[NMeR][Cha]SHKG[Oic][Nle]P[Phe(4-Cl)]-OH
SMILES: CCCCCCCCCCCCC(=O)N[C@@H](CCC(=O)NCCOCCOCC(=O)NCCOCCOCC(=O)N[C@@H](CCC(N)=O)C(=O)N[C@@H](CCCNC(=N)N)C(=O)N1CCC[C@H]1C(=O)N(C)[C@@H](CCCNC(=N)N)C(=O)N[C@@H](CC1CCCCC1)C(=O)N[C@@H](CO)C(=O)N[C@@H](Cc1c[nH]cn1)C(=O)N[C@@H](CCCCN)C(=O)NCC(=O)N1[C@H](C(=O)N[C@@H](CCCC)C(=O)N2CCC[C@H]2C(=O)N[C@@H](Cc2ccc(Cl)cc2)C(=O)O)C[C@@H]2CCCC[C@@H]21)C(=O)O
B6: Apelin polypeptide SEQ ID NO: 410 (peptide)
peptide: Tridecanoyl-[AC4Abu][AEEA][AEEA]QRP[NMeR][Cha]SHKG[Oic][Nle][dPhe(4-Cl)]-OH
SMILES: CCCCCCCCCCCCC(=O)NCCC(C(=O)O)C(=O)NCCOCCOCC(=O)NCCOCCOCC(=O)N[C@@H](CCC(N)=O)C(=O)N[C@@H](CCCNC(=N)N)C(=O)N1CCC[C@H]1C(=O)N(C)[C@@H](CCCNC(=N)N)C(=O)N[C@@H](CC1CCCCC1)C(=O)N[C@@H](CO)C(=O)N[C@@H](Cc1c[nH]cn1)C(=O)N[C@@H](CCCCN)C(=O)NCC(=O)N1[C@H](C(=O)N[C@@H](CCCC)C(=O)N[C@H](Cc2ccc(Cl)cc2)C(=O)O)C[C@@H]2CCCC[C@@H]21
B7: Apelin polypeptide SEQ ID NO: 412 (peptide)
peptide: Tridecanoyl-[AC4Abu][AEEA][AEEA]QRP[NMeR][Cha]SHKG[Oic][Nle][αMeP][Phe(4-Cl)]-OH
SMILES: CCCCCCCCCCCCC(=O)NCCC(C(=O)O)C(=O)NCCOCCOCC(=O)NCCOCCOCC(=O)N[C@@H](CCC(N)=O)C(=O)N[C@@H](CCCNC(=N)N)C(=O)N1CCC[C@H]1C(=O)N(C)[C@@H](CCCNC(=N)N)C(=O)N[C@@H](CC1CCCCC1)C(=O)N[C@@H](CO)C(=O)N[C@@H](Cc1c[nH]cn1)C(=O)N[C@@H](CCCCN)C(=O)NCC(=O)N1[C@H](C(=O)N[C@@H](CCCC)C(=O)N2CCC[C@@]2(C)C(=O)N[C@@H](Cc2ccc(Cl)cc2)C(=O)O)C[C@@H]2CCCC[C@@H]21
B8: SEQ ID NO: 289 (peptide)
peptide: {HOOC(CH2)8CO}-[γGlu][AEEA][AEEA][hArg][dR]Q[hArg]P[dR][NMeL]SHKG[Oic][Phe(4-I)]P[dBip]-OH
SMILES: CC(C)C[C@@H](C(=O)N[C@@H](CO)C(=O)N[C@@H](Cc1c[nH]cn1)C(=O)N[C@@H](CCCCN)C(=O)NCC(=O)N1[C@H](C(=O)N[C@@H](Cc2ccc(I)cc2)C(=O)N2CCC[C@H]2C(=O)N[C@H](Cc2ccc(-c3ccccc3)cc2)C(=O)O)C[C@@H]2CCCC[C@@H]21)N(C)C(=O)[C@@H](CCCNC(=N)N)NC(=O)[C@@H]1CCCN1C(=O)[C@H](CCCCNC(=N)N)NC(=O)[C@H](CCC(N)=O)NC(=O)[C@@H](CCCNC(=N)N)NC(=O)[C@H](CCCCNC(=N)N)NC(=O)COCCOCCNC(=O)COCCOCCNC(=O)CC[C@H](NC(=O)CCCCCCCCC(=O)O)C(=O)O

target: T1, human APJ receptor; assay: cell-based or functional assay

Row | EC50 Human APJ Receptor (GTPγS assay) | Binder
1 | 1 nM | B1
2 | 6.12 nM | B2
3 | 0.0461 nM | Tridecanoyl-[AC4Abu″][AEEA][AEEA]QRP[NMeR]LSH[Nle]GP[Nle]P[Phe(4-Cl)]-OH (reading uncertain) [Apelin polypeptide SEQ ID NO: 466]
4 | 0.469 nM | Tridecanoyl-[AC4Abu″][AEEA][AEEA]QRP[NMeR][Cha]SHKG[Oic][Nle][Aib][Phe(4-Cl)]-OH (reading uncertain) [Apelin polypeptide SEQ ID NO: 382]
5 | 0.41 nM | Tridecanoyl-[γGlu][AEEA][AEEA][dQ]RP[NMeR][Cha]SHKG[Oic][Nle][Aib][Phe(4-Cl)]-OH [Apelin polypeptide SEQ ID NO: 540]
6 | 2.1 nM | B3
7 | 16.7 nM | B4
8 | 0.11 nM | B5
9 | 0.0862 nM | XXXQRPRLSHKGPXPF ({TDA}[AC4Abu][Aeea][Aeea]QR[aMePro][hArg][aMeLeu]SHKGP[Nle]P[4-Cl-F]{COOH}) [Apelin polypeptide SEQ ID NO: 482]
10 | 2.47 nM | B6
11 | 0.535 nM | XXXQRPRLSHKGPXPF ({TDA}[AC4Abu][Aeea][Aeea]Q[hArg]P[NMeArg][BLeu]SHKGP[Nle]P[4-Cl-F]{COOH}) [Apelin polypeptide SEQ ID NO: 383]
12 | 0.614 nM | B7
13 | 1.9 nM | Tridecanoyl-[AC4Abu″][AEEA][AEEA]QR[β3hP][NMeR][Cha]SHKG[Oic][Nle]P[Phe(4-Cl)]-OH (reading uncertain) [Apelin polypeptide SEQ ID NO: 441]

target: T2, rat APJ receptor; assay: cell-based or functional assay

Row | EC50 Rat APJ Receptor | Binder
14 | 0.467 nM | XXXQRPRLSHKGPXPF ({Subericacid}[AC4Abu][Aeea][Aeea]QRP[NMeArg]LSHKGP[Nle]P[4-Cl-F]{COOH}) [SEQ ID NO: 508]
15 | 1.3 nM | B8
16 | 0.215 nM | Tridecanoyl-[AC4Abu″][AEEA][AEEA][hArg][hArg]Q[hArg]P[NMeR][Cha]SHKG[Oic][Nle]P[Phe(4-Cl)]-OH (reading uncertain) [SEQ ID NO: 309]
17 | 0.528 nM | XXXQRPRLSHKGPXPF ({St}[AC4Abu][Aeea][Aeea]QRP[NMeArg]LSHKGP[Nle]P[4-Cl-F]{COOH}) [SEQ ID NO: 594]
18 | 1.39 nM | XXXQRPRLSHKGPXPF ({Succinicacid}[AC4Abu][Aeea][Aeea]QRP[NMeArg]LSHKGP[Nle]P[4-Cl-F]{COOH}) [SEQ ID NO: 497]
19 | 0.128 nM | XXXQRPRLSHKGPXPF ({TDA}[AC4Abu][Aeea][Aeea][BhGln]RP[NMeArg]LSHKGP[Nle]P[4-Cl-F]{COOH}) [SEQ ID NO: 463]

target: T3, rat APJ receptor; assay: cell-based or functional assay

Row | EC50 Rat APJ Receptor (GTPγS assay) | Binder
20 | 0.511 nM | B1
21 | 5.42 nM | B2
22 | 2.94 nM | B3
23 | 4.77 nM | B4
24 | 0.57 nM | B5
25 | 2.68 nM | B6
26 | 0.436 nM | B7

Source: US10941182 (Amgen, dated 2021)
